The record followed here is paper PMC10128029.

Assay in all cases: EMSA
On the technique in general: In EMSA bound probe runs differently from free probe, usually more slowly.

Data set [1] relates to TilS A244T (Burkholderia cenocepacia HI2424). To be noted: unmodified in vitro transcript; EMSA: 3.5 nM 32P-tRNA, 220 nM-39.0 µM TilS, 100 mM Tris-HCl pH 7.8, 5 mM DTT, 10 mM MgCl2, 10 mM KCl, 10% glycerol, 37 C, 30 min; native 10% PAGE.
For data set [2], the system named is TilS N274Y (Burkholderia cenocepacia HI2424). To be noted: unmodified in vitro transcript; EMSA: 3.5 nM 32P-tRNA, 220 nM-39.0 µM TilS, 100 mM Tris-HCl pH 7.8, 5 mM DTT, 10 mM MgCl2, 10 mM KCl, 10% glycerol, 37 C, 30 min; native 10% PAGE.
Data set [3] deals with TilS N445K (Burkholderia cenocepacia HI2424). To be noted: unmodified in vitro transcript; EMSA: 3.5 nM 32P-tRNA, 220 nM-39.0 µM TilS, 100 mM Tris-HCl pH 7.8, 5 mM DTT, 10 mM MgCl2, 10 mM KCl, 10% glycerol, 37 C, 30 min; native 10% PAGE.
The test system of data set [4] is TilS P421L (Burkholderia cenocepacia HI2424). The note with it: unmodified in vitro transcript; EMSA: 3.5 nM 32P-tRNA, 220 nM-39.0 µM TilS, 100 mM Tris-HCl pH 7.8, 5 mM DTT, 10 mM MgCl2, 10 mM KCl, 10% glycerol, 37 C, 30 min; native 10% PAGE.
For data set [5], the system named is TilS WT (Burkholderia cenocepacia HI2424). To be noted: 10 mM Mg2+; unmodified in vitro transcript; EMSA: 3.5 nM 32P-tRNA, 220 nM-39.0 µM TilS, 100 mM Tris-HCl pH 7.8, 5 mM DTT, 10 mM MgCl2, 10 mM KCl, 10% glycerol, 37 C, 30 min; native 10% PAGE.

Usually Kd stands for the constant that tells how readily two partners part at equilibrium.

Take tRNAIle2 (CAU): the Kd was determined as 4.6 µM in data set [1]; 3.3 µM in data set [2]; 3.1 µM in data set [3]; 4.5 µM in data set [4]; 2.6 µM in data set [5].
